A protein production outcome set (Wang et al. 2014)

Assay: label from the status in PepcDB records
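Further: failed if final PepcDB status was selected cloned or expressed and not failed if soluble or beyond.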

With “MITNKKCKGCGAFLNDQINTIGYTPKINETKTNLCQRCFKLIHYNKLEKVSTNLNQSIKETINTLNFSNLQIFAVLDILDLEHTIIDELKEYQNKIIFLVNKIDLLPQRYNSELVNENVVKTLINHGFIDPKIIYVSTHSNTSLKKVMDYIKNATNKKQKSIFFGKSNVGKSSLINALLALNKIKTKLTISSYTNTTINLNKINIQEHQILDAPGVCFDENILNYVRDEDNKSIMISYGAKAINYQINPQQALMISGLVGIQYLKGQKTTFTLYVSSQLDIHRCKLENFIMNFNKRYLLAKFNYLNQDLEFVDHLITLNKDQKTNICIAGLGLLVINAHAEQICIRLPKSVGLKVAKYAII” the protein production was “failed”.

For “MPAPRYKSGSSKKVYRKAPGNSSIVHYRRKKQSKAVCGACGALLNGVPRGRAVEITKLAKTEKRPERPFGGNLCPKCVKKMMVAKARNFLEHHHHHH”, the protein production was “not failed”.

In the case of “MLAGGAARRLGGADKPGLRVGGRPLLDRVLAACAGARRTVVVADPRPTARPVTWAREDPPGGGPLAALAAGLRHTTAEYVLVASADLPFLAGPTVGRLLSALAAGDADGVLLTDADGRDQPLVAAYRAPALRRELAALARNRAGRGERADGAQLTGLPLRRLTGALRLTRVPDAVAAFDCDTWDDLATARARIREHGHVLDEWISAAKDELGIDLDVDTGILLDLARDAAHGVARPAAPLTTFLVGYAAGRAGGGPEAVAETARKAAALAQRWAEEAADTGSAPARGKPDVAPDATPDTRPDA”, the protein production is reported as “failed”.

For “MPFEIGTMPIMSIDPKLLEVLACPQDKGPLKYLEAEQVLVNERLEIAYRIDDGIPVMLVDESIAWPPAEKLEHHHHHH”, the protein production was “failed”.

In the case of “MKLVICIVQDDDAGELIDVLTDKGLRVTKLATTGGFLKAGNTTLMIGVEEKAVDGVIETIEDVCKTRQQVVTSPSPVAGSTGVYVPYPIDVEVGGATIFVVDVDKFIKI”, the protein production is reported as “failed”.

In the case of “MTFEDLHEYLDYLAKKNDLVTITEEVDPNLDLTYILSEEERMGRGRTILFKNVKGSQVPAVGNLFSTNEKLKAVLGDDPYSIGVKIADIVKPPRDSESFIGKGLEMMRELSGLRPKVSNSIPSGYSELEKVDLYRYPICKTWPDDGGPFITLPLVITKDPSTGIRNMGMYRMQVYDSETTGMHWHIHKGGSENFLKEKEKGKAMDVAVVIGSDPLTIFSAVAPLPNGIDEFMFRGLISRKRSELVKGKTVDLEYPRNFEIVLEGYIDPSETRVEGPFGDHTGYYSLEEEFPVFHVKNIIERNDRIYPTTIVGKLWHEDVVLGKAVERMFLPLIQMVLPEVVDINTMEEAVFHNMVIVSIKKRYPGHAKKVMFALWGLGQLMFSKIIVVVDDDINIHNRKELIWAMTTRIDPDRDVIIIPGTVTDSLDHAAPLFNYGSKMGIDATKKDKSEGYTRRWPDVLEMPKDVVDKVRQIMKNNRLIQLEHHHHHH”, the protein production is reported as “failed”.

With “MASSYTLMLFLCLSIFLIASTEMMAVEGRICERRSKTWTGFCGNTRGCDSQCKRWERASHGACHAQGFPVSGIPSALPTVTHAKQREKMSAMGAYGITYFVGSIIGLLFVQGFEPEKGTLFKEQKGGVSKIDPKP” the protein production was “failed”.

With “MSETTQTSQSLYQALWNSADVLRSKMDANDYKSYLLGMVFYKYLSDKMLFFVAETMEEETESLDEALAVYRKYYEDEETHEDLLAVITDEMSYAIHPDLTFTALVERVNDGSFQLEDLAQGFRDIEQSDELYENLFEDIDLYSKKLGATPQKQNQTVAAVMKELAVLDVAGHAGDMLGDAYEYLIGQFATDSGKKAGEFYTPQPVAKLMTQIAFLGREDKQGFTLYDATMGSGSLLLNAKRYSRQPQTVVYFGQELNTSTYNLARMNMILHGVPIENQFLHNADTLDEDWPTQEPTNFDGVLMNPPYSAKWSASSGFMDDPRFSPFGKLAPKSKADFAFLLHGYYHLKQDNGVMAIVLPHGVLFRGNAEGTIRKALLEEGAIDTVIGLPANIFFNTSIPTTVIILKKNRTNRDVYFIDASKEFDKGKNQNIMTDAHIEKILNAYKSREDIDKFAHLASFEEIVENDYNLNIPRYVDTFEEEEVEPLTEIVAKINQTNATIESQTASLLDMLGQLHGTTPEADEELKAFVKAFKGLEHHHHHH” the protein production was “failed”.

In the case of “MSKPFMFEKPFGMRDTLPEWYKTKKNICDQMTEEINLWGYDMIETPTLEYYETVGVVSAILDQQLFKLLDQQGNTLVLRPDMTAPIARLVASSLKDRAYPLRLAYQSNVYRAQQNEGGKPAEFEQLGVELIGDGTASADGEVIALMIAALKRAGLSEFKVAIGHVGYVNALLMDVVGNEQRADRLRRFLYEKNYVGYREHVKSLNLSTIDKSRLMNLLSLRGGRAAIEEARGLIQTEKGKTALAEMTKLYEVLESYGASEYVKFDLTLVLHMSYYTGVVFEGYGNRLGVPLCSGGRYDELLSKFHRPAQATGFGVRIDLLVEALNGEIISNGHEQTCILFSNERRFEAIELARKKRANGEAVVLQDLAGVTDVDAMSSNYQDVIYCIGTAGRGGEDA”, the protein production is reported as “not failed”.

For “MNIGLLEALDQLEEEKGISKEEVIPILEKALVSAYRKNFGNSKNVEVVIDRNTGNIKVYQLLEVVEEVEDPATQISLEEAKKIDPLAEVGSIVKKELNVKNFGRIAAQTAKQVLIQRIRELEKEKQFEKYSELKGTVTTAEVIRVMGEWADIRIGKLETRLPKKEWIPGEEIKAGDLVKVYIIDVVKTTKGPKILVSRRVPEFVIGLMKLEIPEVENGIVEIKAIAREPGVRTKVAVASNDPNVDPIGACIGEGGSRIAAILKELKGEKLDVLKWSDDPKQLIANALAPATVIEVEILDKENKAARVLVPPTQLSLAIGKGGQNARLAAKLTGWKIDIKPIMNL”, the protein production was “not failed”.

With “MTKQKSKPVEYHPFPQLVLTLDVRRSFTPTFLRQILQTRSFACVILYDSQGVQDDAVFLQKQAQIYAEDIQSNGAAFLISGERRVSERIKADGLHIEGDLKALEYCDYQKKEQKIIGFGNIRNRHCAMVAGEAGVDYLLFGKLGADKKPHAHPRNLQLARWWAEIMETPAIVQAGSDFATFDEVIKTACEFIAIEEVIFAHDNPLMLLKMMQEKCKNSPL” the protein production was “failed”.

For “MPTPRPEPAAPPGNNQAGPPAGGPIISPTDLIAIQPPRAVAGDFVPDEVLVTVDGDAGAVQQIAASFGLEVRSQRQSRLLGTTLVRFGIPDGRPVGVVLAQLAADGRTQRREPNHIYSLQQAAGIVNYAFDRIALDAKQASGENIRVAVIDTGIDDTNPALAGVIAAQFDAMPGVPVEKRDHGTSIDGLIAGVGALEGMAPGARIYHARAFEGGKSTMDVILSALDWAAEQNVSIINMSFVGPKNDLLGAACRNARALGMVLVAAAGNNGPKAPYGYPAAFDGVIAVTATDAKDALMPQANRGAYVFISAPGVEMVAPSGAGSDVVTGTSFAAAIVSGAIANLLHASPGRTADDIEKALAATAKDLGPKGRDNDFGYGLLDIKAAEAAKE”, the protein production was “failed”.

For “TATLILDDGLAIRYANPAAELLFSQSAKRIVEQSLSQLIQHASLDLALLTQPLQSGQSITDSDVTFVVDGRPLMLEVTVSPITWQRQLMLLVEMRK”, the protein production was “not failed”.

In the case of “MRDMEFIEWYPRGYGVAFKVKRKILEEQSEYQKIEVYETEGFGKLLAIDGTVQLVTEGEKSYHEPLVHPAMLAHPNPRRVLIIGGGDGGAIREVLKHEEVEEVIMVEIDKKVIEISAKYIGIDGGILEKMLSDKHEKGKLIIGDGVKFIEENSGFDVIIVDSTDPVGPAEMLFSEEFYKNAYRALNDPGIYVTQAGSVYLFTDEFLTAYRKMRKVFDKVYYYSFPVIGYASPWAFLVGVKGSIDFMKVDAEKGKKLGLEYYDPDKHETLFQMPRYIVQML”, the protein production is reported as “not failed”.

In the case of “MDFYQFAEYIVLNYGYFGIFLIAFTEAVIQPILPDIFIIGASAFGLDSVTCALVASFGSLTGGYTGYFLGKKLGTNVFLKIFKEKYFIKGKAFFEKFGVWGVAIAGFTPIPYKVFAWLAGIFKMNLVSFGAGTLLGRIPRFLLVAYFGYSLGLLFGLHTP”, the protein production is reported as “failed”.

With “MLISLIVPIYNVEGFLPRCLDSIIKQEYQNLEIVLVNDGSTDQSGLICDQYAEKDERFIVFHKENGGVSSARNVGLNKANGNYIGFVDPDDWIEPNMINKLYELIIQHKADIAMCGYVKEDINGLLISRPVELSTKILNKEDTLNSILNPNDFRGFLCNKLFSVDLFRKKNLYLDEDIHFCEDLLFCCQAILESKQIVYDSTPYYHYIIHNNNASKSNFSFKKLTALNSLDNIINLLNDQKGIELEQYKNYYMHLNISLLMNGIHEDKIRRQDKERLKKNLYKFKINDLTSKFVKFSCVLARLNLNLYYFIWKNAKPSNLEHHHHHH” the protein production was “failed”.

In the case of “MKTSQEELLPATRRALLHRIAVAQAEGRAPSLAAAVVRGGQTVWYGSRTSVDGHAPDENVQYRIGSITKTFTAVLVLRLRDEGVLDLGDPLEKHLPGTGAGEATIAELLAHTGGLAAESPAPWWERTPGSLRPELADVLGELPLRHPVGRRHHYSNPGYTLLGALVEELRGAPWEEVLRREVLEPLGMRRTSGDPRAPHAGGWAVHPWADVMLPEPAEDLGRMAPAGQLWSTTGDLARFAVFLAQGDERVLSADSVREMRTPAAPAEAADVMSGSAYGLGMQLQYRDGRLLVGHSGSLPGFLANLTVSVEDDLAAVVLVNCTSGPMPSAVAADLVRIVAEAEPRIPEPWRPLPDVDEGVLELAGQWYWGTQAFVLRLTVDGGVSLEPLSGVGRRARLRANGDGTWTGLDGYYAGELLKAVRRPDGSVSHLDLGSFVFTRQPYDEGAPVPGGVDPEGWRGIP”, the protein production is reported as “failed”.

For “MSKGYGVFGHVPDNADDDDLLPYEDDDSGVSWGHALRRRNPWKRGGDEGADYDDDRYGADDTDDTDDTNEDRSLFAGKSSGIGGISGEADGMLGGAGAAGSRAVTFGGTDSLSAADAVMPYRFRQGRSVWFEDEDEGHFAGAAKRAEAHAVPILALRNDVESSSSNAVLARARSIARKAATMVINPVYSENHRTGYAELDGILRGTTSPSSKYRTSVQFDLDTGEAVGGKCSCPAYGRGYGMCKHMIALAFIFCDDPQRFEGYRAGAVRPSRTLIDYMEHVDRQDAQAKARRRNALMRRFDTAKGRNGAGGRHTNSGYGSRAGTRGGGYQGDSETVGLGQVQLVPILSFIDGVWSVEFKIGSTSNGSSYVLKSIPQFVLTMANGDYTDYGQKLAFTHTPDMFDDDSRPLLGFLDDAMAVRRAAEQQDRYYGHIAIDRHLTLSAPEVARLLSVREGRGVQLVLNTWFSGQPASVPVDGGEPDFLMRIARRDFNTYGPDAGYLLTGVPAVETVIDGGKNVWLLLASANPAGVVSAMMAGSQRKSAAGCRFVRCPKRLIPLRGLLGDMFEPDGEGQVIAGDDIALFARTLLPQLVGAGLLEASEIPRELAELSPTECSLQFYLDRDEHGVQCEVKARYGDAIVPLLPDGPTVHARDERSIPLSRGVIGRDFDAEHLAIDVVREFFTMPDQRKRVAAATHQTVNGFRTPAARKTAKQFVPDAATIDRDDTTQIVRLFDEGLPALKEVGEVFTTPAFDRLIAPKPPSVKVGLSIKGNLVEISPLADEVPPDEVGALLSSYRRRQRFHQLKDGTLVKLSGANLSTLDRLASDLDLSEQQLNSGLIELPGGRAFLLDGELPDDGSDVVKDASFTEYIDDLKIIDPKSYEVPDSLKHILRPYQVEGFQWLNTLCDKGFGGILADEMGLGKSVQLIALLLSRYHNESSGMPTAQGMDAGNAGNSESAVTGHITFDSEDGGSHPSLIVCPASLVYNWGAEFAKFAPSFNAVVVAGTKAERRTAIGRAFRADEPTVLITSYDLLRRDVDDYTANEQRFNVMALDEAQYIKNHTTKIAKAVKAVAADHRFALTGTPIENRLSELWSIFDFLMPGLLGSYKRFHERYELPISNARAADGSTAEGRAAAQVNPEAARVSRQLQSLVGVFIKRRLKSQVLTDLPDKLETTLTVQLAGEQRKLYAAHEQRLRMQLEHSEEADFNTSKIRILAELTKLRQICCDPRLLYADAKDQSAKLAAITELVETCVNEGKKALIFSQFTSFLDLIAERFDAQGLRYYTITGSTPKKKRLELVDQFNADDTPAFLISLKAGNTGLNLTGASVVIHADPWWNAAAQDQATDRAHRIGQTEDVNVYQVVAKDTIEERILELQHTKSELARQFTDASLLADEAGTGASALTEAPASIATLTKDDLLNLLG”, the protein production was “failed”.
